Results taken from patent publication US10907134B2, “Mutated genes for the catalytic protein of oplophorus luciferase and use thereof” (JNC CORPORATION, priority 2013, dated 2021).
Positions count from the first letter of the chain named. Names and notes keep the numbering of the source.

B1: KAZ-Q11R: KAZ with single amino acid substitution Q11R (protein)
chain: FTLADFVGDWRQTAGYNQDQVLEQGGLSSLFQALGVSVTPIQKVVLSGENGLKADIHVIIPYEGLSGFQMGLIEMIFKVVYPVDDHHFKIILHYGTLVIDGVTPNMIDYFGRPYPGIAVFDGKQITVTGTLWNGNKIYDERLINPDGSLLFRVTINGVTGWRLCENILA
B2: KAZ-F68D: KAZ with single amino acid substitution F68D (protein)
chain: B1 chain with R11Q, F68D
B3: KAZ-M75K: KAZ with single amino acid substitution M75K (protein)
chain: B1 chain with R11Q, M75K
B4: KAZ-L27V: KAZ with single amino acid substitution L27V (protein)
chain: B1 chain with R11Q, L27V
B5: KAZ-A33N: KAZ with single amino acid substitution A33N (protein)
chain: B1 chain with R11Q, A33N
B6: KAZ-K43R: KAZ with single amino acid substitution K43R (protein)
chain: B1 chain with R11Q, K43R
B7: KAZ-Q18L: KAZ with glutamine at position 18 substituted by leucine (protein, listed as Oplophorus gracilirostris)
chain: B1 chain with R11Q, Q18L
B8: KAZ-L72Q: KAZ with single amino acid substitution L72Q (protein)
chain: B1 chain with R11Q, L72Q

Test system: not listed separately
Experiment: Luminescence activity of KAZ mutants (pCold II, E. coli) in supernatant and precipitate of crude enzyme solution
Type: biochemical
Settings: Table 3; pCold II, E. coli BL21; 5 μL precipitate; 0.5 μg coelenterazine; 60 seconds
Method: In order to express the KAZ mutants in E. coli, the recombinant plasmid prepared in EXAMPLE 3 was used. The E. coli BL21 strain (Novagen, Madison, Wis.) was used as a host cell. The BL21 strain carrying the recombinant plasmid was incubated in 5 mL of Luria-Bertani medium (hereinafter designated as LB medium) containing ampicillin (50 μg/mL) at 37° C. for 18 hours. This seed culture, 0.1 mL, was inoculated to 10 mL of LB medium and incubated for 3 hours, followed by cooling in an ice-water bath for 1 hour. IPTG was added to the culture medium at a final concentration of 1 mM, followed by incubation at 15° C. for further 20 hours. After completion of the incubation, 1 mL of the cultured medium was harvested by centrifugation at 10,000 rpm for 2 minutes. The thus collected E. coli cells were suspended in 0.5 mL of 30 mM Tris-HCl (pH 7.6)-10 mM EDTA (manufactured by Wako Pure Chemical Industries, Ltd.) (hereinafter designated as TE). The E. coli cells were disrupted by sonication for 3 seconds using a Branson Model 250 Sonifier (Danbury, Conn.) to give a crude enzyme solution. After 0.5 mL of the crude enzyme solution was further centrifuged at 10,000 rpm for 2 minutes to separate the supernatant from the precipitate, the precipitate was suspended in 0.5 mL of TE. Then 20 μL each of the supernatant and precipitate were analyzed by SDS-PAGE to confirm the presence or absence of soluble and insoluble proteins. The results are shown in FIG. 1, wherein M and 1 to 17 denote: M: molecular weight size markers; 1: KAZ; 2 KAZ-A4E; 3: KAZ-Q11R; 4: KAZ-Q18L; 5: KAZ-L27V; 6: KAZ-A33N; 7: KAZ-K43R; 8: KAZ-V44I; 9: KAZ-A54I; 10: KAZ-F68D; 11: KAZ-L72Q; 12: KAZ-M75K; 13: KAZ-I90V; 14: KAZ-P115E; 15: KAZ-Q124K; 16: KAZ-Y138I; 17: KAZ-N166R and 18: dnKAZ.
A luminescence reaction was started by the addition of 5 μL each of the supernatant and precipitate obtained in EXAMPLE 4 to 100 μL of TE containing 0.5 μg of coelenterazine (manufactured by JNC Corp.). The luminescence activity was measured for 60 seconds using a luminometer (manufactured by Atto Corp.: AB2200) and expressed in terms of relative luminescence activity (Imax).
To express the KAZ mutants with two amino acid substitutions and three amino acid substitutions in E. coli using a pCold II vector, the recombinant plasmid constructed in EXAMPLE 13 and pCold-V44I-KAZ, pCold-A54I-KAZ, pCold-Y138I-KAZ prepared in EXAMPLE 3 were used. The supernatant and precipitate of each crude enzyme solution were prepared in the same manner as EXAMPLE 4, using the E. coli BL21 starin (Novagen, Madison, Wis.) as a host cell. The supernatant and precipitate, 20 μL each, were subjected to SDS-PAGE analysis to confirm the presence or absence of soluble proteins and insoluble proteins. In FIG. 3, M and 1 to 9 are as follows. M: molecular weight markers; 1: dnKAZ; 2: KAZ; 3: KAZ-V44I-A54I; 4: KAZ-V44I-Y138I; 5: KAZ-A54I-Y138I; 6: KAZ-V44I-A54I-Y138I; 7: KAZ-V44I; 8: KAZ-A54I; and 9: KAZ-Y138I.
The luminescence activities of 5 μL each of the supernatant and precipitate obtained in EXAMPLE 14 were determined in the same manner as EXAMPLE 5. The luminescence activity was assayed with a luminometer (manufactured by Atto Inc.: AB2200) for 60 seconds, and the maximum intensity of luminescence (Imax) was shown as relative luminescence activity.

| Molecule | Relative Luminescence Activity (Imax) Precipitate |
| --- | --- |
| B1 | 0.3 |
| B2 | 0.2 |
| B3 | 0.4 |
| B4 | 0.1 |
| B5 | 0.4 |
| B6 | 0.2 |
| B7 | 0.2 |
| B8 | 0.6 |

Same assay, conditions: Table 3; pCold II, E. coli BL21; 5 μL supernatant; 0.5 μg coelenterazine; 60 seconds

| Molecule | Relative Luminescence Activity (Imax) Supernatant |
| --- | --- |
| B1 | 2.0 |
| B2 | 5.4 |
| B3 | 4.6 |
| B4 | 0.1 |
| B5 | 1.0 |
| B6 | 1.8 |
| B7 | 1.0 |
| B8 | 7.2 |

Test system: not listed separately
Experiment: Luminescence activity of ZZ-fused KAZ mutants in crude enzyme solutions
Type: biochemical
Settings: Table 4; ZZ-fused (pCold-ZZ-P-); 1 μL crude enzyme solution, 1 mM DTT; 1 μg coelenterazine
Method: To express the ZZ-fused KAZ mutants in E. coli, the recombinant plasmid prepared in EXAMPLE 6 was used. Crude enzyme solutions were prepared in the same manner as EXAMPLE 4 using the E. coli BL21 strain (Novagen, Madison, Wis.) as a host cell. The resultant crude enzyme solution, 5 μL, was subjected to SDS-PAGE analysis to confirm expression of the proteins (FIG. 2). In FIG. 2, M and 1 to 18 are the same as described in FIG. 1.
DTT was added to the crude enzyme solution obtained in EXAMPLE 7 at a final concentration of 1 mM and the mixture was allowed to stand in an ice water for more than 5 hours. A luminescence reaction was started by adding 1 μL of the crude enzyme solution to 100 μL of TE containing 1 μg of coelenterazine (manufactured by JNC Corp.). The luminescence activity was determined using a luminometer (manufactured by Atto Inc.: AB2200) for 60 seconds, and the maximum intensity of luminescence (Imax) was shown as relative luminescence activity.
To express the ZZ-fused KAZ mutants in E. coli, the recombinant plasmid constructed in EXAMPLE 16 and pCold-ZZ-P-V44I-KAZ, pCold-ZZ-P-A54I-KAZ, pCold-ZZ-P-Y138I-KAZ prepared in EXAMPLE 6 were used. Crude enzyme solutions were prepared in the same manner as EXAMPLE 7, using the E. coli BL21 strain (Novagen, Madison, Wis.) as a host cell. DTT was added to the crude enzyme solutions at a final concentration of 1 mM. The mixtures were allowed to stand over 5 hours on ice, and luminescence activities were then assayed. The luminescence activities were determined by the method described in EXAMPLE 8. Also, 5 μL of the resultant crude enzyme solutions were subjected to SDS-PAGE analysis to confirm protein expression (FIG. 4). In FIG. 4, M and 1 to 9 are as follows. M: molecular weight size markers; 1: ZZ-P-KAZ; 2: ZZ-P-KAZ-V44I; 3: ZZ-P-KAZ-A54I; 4: ZZ-P-KAZ-Y138I; 5: ZZ-P-KAZ-V44I-A54I; 6: ZZ-P-KAZ-V44I-Y138I; 7: ZZ-P-KAZ-A54I-Y138I; 8: ZZ-P-KAZ-V44I-A54I-Y138I; and 9: ZZ-P-dnKAZ.

| Relative Luminescence Activity (Imax) | Molecule |
| --- | --- |
| 1.8 | B1 |
| 2.7 | B2 |
| 1.3 | B3 |
| 0.1 | B4 |
| 1.0 | B5 |
| 0.6 | B6 |
| 0.3 | B7 |
| 2.5 | B8 |

Test system: CHO-K1 cells
Experiment: Luminescence activity of KAZ mutants expressed in animal culture cells with signal peptide of Gaussia luciferase for secretion
Type: cell-based, Chinese hamster
Settings: Table 5; pcDNA3-GLsp- vectors; CHO-K1, 48 hours; 5 μL cell extracts; 0.5 μg coelenterazine
Method: Chinese hamster ovary cell line CHO-K1 was cultured in Ham's F-12 medium (manufactured by Wako Pure Chemical Industries, Ltd.) supplemented with 10% (v/v) fetal bovine serum (manufactured by Biowest Inc.). The CHO-K1 cells were plated in a 6-well plate in 1×10^5 cells/well/2 mL medium (n=2) and cultured in an incubator at 37° C. in 5% (v/v) CO2. After 24 hours, the purified recombinant plasmid was transfected to CHO-K1 cells using a FuGene HD transfection kit (manufactured by Promega Corp.), which was provided for subsequent experiment. Specifically, 1 μg of the recombinant plasmid pGL4.13 [Luc2/sv40], 0.1 μg of the internal standard vector and 3 μL of FuGene HD were added to 100 μL of the medium, which was allowed to stand at room temperature for 15 minutes. Subsequently, 100 μL of the DNA-FuGene complex was added to the cells in the 6 wells. After incubation for 48 hours, the culture medium was collected. On the other hand, the KAZ mutants expressed in the cells were washed 3 times with 3 mL of 1×PBS, then suspended in 1 mL of 1×PBS and disrupted on ice by ultrasonication, which was used as enzyme solutions of the cell-extracts of KAZ mutants.
A luminescence reaction was started by adding 5 μL of the culture media and cell extracts obtained in EXAMPLE 10 to 100 μL of 30 mM Tris-HCl (pH 7.6)-10 mM EDTA (manufactured by Wako Pure Chemical Industries, Ltd.) containing 0.5 μg of coelenterazine (manufactured by INC Corp.). The luminescence activity was determined using a luminometer (manufactured by Atto Inc.: AB2200) for 60 seconds, and the maximum intensity of luminescence (Imax) was defined as a percentage.
Culture media of the KAZ mutants with two amino acid substitutions and KAZ mutants with three amino acid substitutions and the enzyme solutions of the cell-extracts of KAZ mutants were prepared in the same manner as EXAMPLE 10.
In the resultant enzyme solutions and the enzyme solutions of the cell-extracts of KAZ mutants, luminescence activities were determined in the same manner as EXAMPLE 11.

| Molecule | Relative Luminescence Activity (Imax) (%) Cell Extracts |
| --- | --- |
| B1 | 0.1% |
| B2 | 0.3% |
| B3 | 0.2% |
| B4 | 0.02% |
| B5 | 0.1% |
| B6 | 0.1% |
| B7 | 0.02% |
| B8 | 0.4% |

Same assay, conditions: Table 5; pcDNA3-GLsp- vectors; CHO-K1, 48 hours; 5 μL culture medium; 0.5 μg coelenterazine

| Molecule | Relative Luminescence Activity (Imax) (%) Culture Medium |
| --- | --- |
| B1 | less than 0.01% |
| B2 | less than 0.01% |
| B3 | less than 0.01% |
| B4 | less than 0.01% |
| B5 | less than 0.01% |
| B6 | less than 0.01% |
| B7 | less than 0.01% |
| B8 | less than 0.01% |
